{"source": "patent US7119185", "key": {"[1]": {"target": "histone H1"}, "[2]": {"target": "myelin basic protein"}}, "data": [{"protein": "Hunk (hormonally up-regulated, neu-tumor-associated kinase), murine, 714-amino-acid ~80-kDa polypeptide (protein) MPAAAGDGLLGEPAAPGGDGGAEDTTRPAAACEGSFLPAWVSGVSRERLRDFQHHKRVGNYLIGSRKLGEGSFAKVREGLHVLTGEKVAIKVIDKKRAKKDTYVTKNLRREGQIQQMIRHPNITQLLDILETENSYYLVMELCPGGNLMHKIYEKKRLDEAEARRYIRQLISAVEHLHRAGVVHRDLKIENLLLDEDNNIKLIDFGLSNCAGILGYSDPFSTQCGSPAYAAPELLARKKYGPKIDVWSIGVNMYAMLTGTLPFTVEPFSLRALYQKMVDKAMNPLPTQLSTGAVNFLRSLLEPDPVKRPNIQQALANRWLNENYTGKVPCNVTYPNRISLEDLSPSVVLHMTEKLGYKNSDVINTVLSNRACHILAIYFLLNKKLERYLSGKSDIQDSICYKTQLYQIEKCRATKEPYEASLDTWTRDFEFHAVQDKKPKEQEKRGDFLHRPFSKKLDKNLPSHKQPSPSLITQLQSTKALLKDRKASKSGFPDKDSFVCRNLFRKTSDSNCVASSSMEFIPVPPPRTPRIVKKLEPHQPGPGSASILPKEEPLLLDMVRSFESVDREDHIELLSPSHHYRILSSPVSLARRNSSERTLSQGLLSGSTSPLQTPLHSTLVSFAHEEKNSPPKEEGVCSPPPVPSNGLLQPLGSPNCVKSRGRFPMMGIGQMLRKRHQSLQPSSERSLDASMSPLQPIAPSSLSFDMADGVKGQC", "values": [{"measurement": "in vitro kinase assay of Hunk immunoprecipitates with [gamma-32P]ATP", "setting": "[1]", "value": "Hunk immunoprecipitates were able to phosphorylate both histone H1 and MBP in vitro"}, {"measurement": "in vitro kinase assay of anti-Hunk (C-terminal antisera) immunoprecipitates from lactating mammary glands", "setting": "[1]", "value": "Hunk-associated kinase activity was substantially greater in immunoprecipitates prepared from transgenic when compared with wild type mammary glands"}, {"measurement": "in vitro kinase assay of Hunk immunoprecipitates with [gamma-32P]ATP", "setting": "[2]", "value": "Hunk immunoprecipitates were able to phosphorylate both histone H1 and MBP in vitro"}]}]}
